Source: the DeepSol protein solubility set

Assay: soluble on expression in E. coli; label from the status in PepcDB or PDB records

Sequence	soluble on expression in E. coli
MAHHHHHHMNKSTVAGELRNIFSQGTNAYTVELYNAFYRDGTLSLVMEYMDWGNLEELIAICPTIPEPACAYIASQILHALQILHTKANHPTETDKKGRRQIHRDIKPANVMLSKNGVVKLTDFGIAASAETIGVNSFVGTATYMSPERIQGRNYSTPSDIWSVGVLTAQLLLGRFPFSAAEGGFMALLRQVTECCSLSLVDQCACSQKAEDFINHCICRNPDDRSTAIELLQHEWIVQNASNGKDVLTGLLGTVGEPAASSESDNS	not soluble
MGSDKIHHHHHHMVATLDDTKRNAIAVKLASIKALQQLVIENEQSLLREGLDAEIADRIRNFLKDDEKNLGVLETVIGQYGIQAEPKKNVTQFIEKARELFKGSELSLYEKVSQHELLKHQLVMSGLIVHKAAQKVGADVLLAIGPLNTINFENRAHQEQLKGILEILGVREFTGQDADQGIWARVQDAMAAVSGVVGSAVTQTSDKSDLNIQDVIRLDHNKVNTLFTELLQSDNPQKIQEYFGQIYKDLTAHAEAEEEVVYPRVRPFYGQDNTQELFDEQAEMKRVLEQIKAISPSSSEFKDRVRQLMEAVGDHIRQEESTMFAAIRNNLSSDQSEQLATEFKAAKTRIQEKLGVVSESNA	not soluble
GPGSMLRSEVLDAEVAKSVEAYSTAVTPFVERRSGLYLTKFEVARIIGERAKQIASGAAMSLPGTGSGLDSVETAERCTNPRSLAVDPVMMAKYDLLQRKIRMLVRRVWPDGAVETIPVNELMVDVTMLDLQY	soluble
MTFQETISAYIQERYQITPDFPFKKHPDYLVFRHPRNAKWFALIMPLDAQLLGATENKQLTILTVKLAPELIALLKNQPGYFPAYHMNKEHWLSLSEEIPLSQVFSFIDESYQRSY	not soluble
MTEMSFLSSEVLVGDLMSPFDQSGLGAEESLGLLDDYLEVAKHFKPHGFSSDKAKAGSSEWLAVDGLVSPSNNSKEDAFSGTDWMLEKMDLKEFDLDALLGIDDLETMPDDLLTTLDDTCDLFAPLVQETNKQPPQTVNPIGHLPESLTKPDQVAPFTFLQPLPLSPGVLSSTPDHSFSLELGSEVDITEGDRKPDYTAYVAMIPQCIKEEDTPSDNDSGICMSPESYLGSPQHSPSTRGSPNRSLPSPGVLCGSARPKPYDPPGEKMVAAKVKGEKLDKKLKKMEQNKTAATRYRQKKRAEQEALTGECKELEKKNEALKERADSLAKEIQYLKDLIEEVRKARGKKRVP	soluble
MSGFDLIIFDCDGVLVDSEIIAAQVESRLLTEAGYPISVEEMGERFAGMTWKNILLQVESEASIPLSASLLDKSEKLLDMRLERDVKIIDGVKFALSRLTTPRCICSNSSSHRLDMMLTKVGLKPYFAPHIYSAKDLGADRVKPKPDIFLHGAAQFGVSPDRVVVVEDSVHGIHGARAAGMRVIGFTGASHTYPSHADRLTDAGAETVISRMQDLPAVIAAMAEWEGAF	soluble
MSMNRQEISDLCVKSLEGRMVGTEAQNIENGNAFYRYFFTNFPDLRVYFKGAEKYTADDVKKSERFDKQGQRILLACHLLANVYTNEEVFKGYVRETINRHRIYKMDPALWMAFFTVFTGYLESVGCLNDQQKAAWMALGKEFNAESQTHLKNSNLPHV	not soluble
MAIKITPDEFSLLIQRLNKKWRVFAPSAEFRGGRFSDTDNIIYQRISGWRDLIWHEKSHMSPNTIIAPITETLFYFDKDTIQIAETDTSPIIIFARACDINAMSRLDYMYLSNGNNSDYSYQLLREHIRFVLIECEESFENCFCVSMGTNKTDCYSAAMRFSDEGALVSIRDPFIEAAIQGLGQEADYTPSFVSENRETVVTPDSVCHDPQKIRDILTHHPLWDAYDSRCISCGRCTTGCPTCTCYSVFDVAYDENPQRGERRRQWASCMVPGFSDMAGGHGFREKPGERLRYRALHKVNDYKARNGIEHMCVGCGRCDDRCPQYIKFSLIINKMTAAVRQALAEEA	not soluble
MAEQLSPGKAVDQVCTFLFKKPGRKGAAGRRKRPACDPEPGESGSSSDEGCTVVRPEKKRVTHNPMIQKTRDSGKQKAAYGDLSSEEEEENEPESLGVVYKSTRSAKPVGPEDMGATAVYELDTEKERDAQAIFERSQKIQEELRGKEDDKIYRGINNYQKYMKPKDTSMGNASSGMVRKGPIRAPEHLRATVRWDYQPDICKDYKETGFCGFGDSCKFLHDRSDYKHGWQIERELDEGRYGVYEDENYEVGSDDEEIPFKCFICRQSFQNPVVTKCRHYFCESCALQHFRTTPRCYVCDQQTNGVFNPAKELIAKLEKHRATGEGGASDLPEDPDEDAIPIT	soluble
MGSDKIHHHHHHMKSRKFPIRFENFSLSVDGKSVLENITLSFVEGMNVLYGPRGSGKSSLLRSIVKLNTEIFNEISRSGSVYLFDQNVEDLDDIYVRKNALYLDTSFIDAMNQYTFDEFLKLALKRKISLENFSEKLDDLGILRMLIRGQKTPLSVFSPAEKISLLLFILEQKKPRVILMDCLLDHLDDENLEKIMDMFLKMKEERTFVISTRILQRFLYIADLLVILNNGRINYTGSPKDFVLRM	not soluble
MGSDKIHHHHHHMVRVRFAPSPTGFLHVGGARTALFNFLFARKEKGKFILRIEDTDLERSEREYEEKLMESLRWLGLLWDEGPDVGGDHGPYRQSERVEIYREHAERLVKEGKAYYVYAYPEEIEEMREKLLSEGKAPHYSQEMFEKFDTPERRREYEEKGLRPAVFFKMPRKDYVLNDVVKGEVVFKTGAIGDFVIMRSNGLPTYNFACVVDDMLMEITHVIRGDDHLSNTLRQLALYEAFEKAPPVFAHVSTILGPDGKKLSKRHGATSVEAFRDMGYLPEALVNYLALLGWSHPEGKELLTLEELISSFSLDRLSPNPAIFDPQKLKWMNGYYLRNMPIEKLAELAKPFFEKAGIKIIDEEYFKKVLEITKERVEVLSEFPEESRFFFEDPAPVEIPEEMKEVFSQLKEELQNVRWTMEEITPVFKKVLKQHGVKPKEFYMTLRRVLTGREEGPELVNIIPLLGKEIFLRRIERSLGG	soluble
MANKLTVLASVVAASSAMLSLSASAAESTLDKVLSQGFITCGVSTGLPGFSNPNAKGEWEGIDVEYCQAMAAAVLGDKTKVKFVPLTAKERFTALQSGEIDVLSRNTTWTLQRDSALGLNFVGVNYYDGQGFMVKKDLGVKSAKELNGASVCVQSGTTTELNLADYFRNSGMTYKPVVFDTAAQTSKGFDAGRCDVLTTDQSGLYALRLNLEKPDSAVVLPEIISKEPLGPVVRQDDDKWFNVAKWVLYAMVNAEEYGITSKNVDEMMKSDNPEVKRILGLDGPKGTGLGIRDDWSYQIVKQVGNYGESFDRTVGSGSPLKIDRGVNALWNAGGFMYAPPIR	not soluble
MAHHHHHHMGTLEAQTQGPGSMTAASSSAPTLGIIRLEHAKGLDLPAYETAGSAGMDLRAAVAEDRQIVLLPGRRTLVPTGLILEIPQGYEVQIRPRSGLAFKNGITCLNTPGTIDSDYRGEVKVLLINLGDDDFRIERGMRIAQAVFAPVIQPKIEERAKISETARGAGGFGSTGTA	soluble
SMDSRLQRIHAEIKNSLKIDNLDVNRCIEALDELASLQVTMQQAQKHTEMITTLKKIRRFKVSQVIMEKSTMLYNKFKNMFLVGEGDSVLEVLFQ	soluble
MASLLTETMPFRMTMEGTVNGHHFKCTGKGEGNPFEGTQDMKIEVIEGGPLPFAFDILSTSC	soluble
MNPVAFIREKREGKKHRREDLEAFLLGYLRDEVPDYQVSAWLMAAFLRGLDPEETLWLTETMARSGKVLDLSGLPHPVDKHSSGGVGDKVSLVVGPILAASGCTFAKMSGRGLAHTGGTIDKLESVPGWRGEMTEAEFLERARRVGLVIAAQSPDLAPLDGKLYALRDVTATVESVPLIASSIMSKKLAAGARSIVLDVKVGRGAFMKTLEEARLLAKTMVAIGQGAGRRVRALLTSMEAPLGRAVGNAIEVREAIEALKGEGPGDLLEVALALAEEALRLEGLDPALARKALEGGAALEKFRAFLEAQGGDPRAVEDFSLLPLAEEHPLRAEREGVVREVDAYKVGLAVLALGGGRKRKGEPIDHGVGVYLLKKPGDRVERGEALALVYHRRRGLEEALGHLREAYALGEEAHPAPLVLEAI	soluble
MGSDKIHHHHHHMHARSLDKKPLDRQASIDSALRTVATEQAGIAALAEALENGLAAPFAQAVDMISKIEGRLIVTGVGKSGHIGSKIAATLASTGTPAFFVHPVEANHGDLGMIAKDDAIIAISWSGESKEMLGIVAYSRRFSIPLIAVTSGETSALARAADVVLLLPRTPEACPHGLAPTTSTLLQLVIGDALAIALLEARGFTPDHFRTFHPGGQLGANLTMVSEIMRVGDQMPLAVLGTKMPEAVMTLSQKKVGCVLIVDANGELAGIITDGDVARNLHRNLADVIVDEVMTRTPKTVDPQTLAGTAIALLNEHNIGALVVTRNNMPLGVVHFHDLLRIGAA	not soluble
MSLARPNSKASIGTVFQDRAARYGDRVFLKFGDQQLTYRDANATANRYAAVLAARGVGPGDVVGIMLRNSPSTVLAMLATVKCGAIAGMLNYHQRGEVLAHSLGLLDAKVLIAESDLVSAVAECGASRGRVAGDVLTVEDVERFATTAPATNPASASAVQAKDTAFYIFTSGTTGFPKASVMTHHRWLRALAVFGGMGLRLKGSDTLYSCLPLYHNNALTVAVSSVINSGATLALGKSFSASRFWDEVIANRATAFVYIGEICRYLLNQPAKPTDRAHQVRVICGNGLRPEIWDEFTTRFGVARVCEFYAASEGNSAFINIFNVPRTAGVSPMPLAFVEYDLDTGDPLRDASGRVRRVPDGEPGLLLSRVNRLQPFDGYTDPVASEKKLVRNAFRDGDCWFNTGDVMSPQGMGHAAFVDRLGDTFRWKGENVATTQVEAALASDQTVEECTVYGVQIPRTGGRAGMAAITLRAGAEFDGQALARTVYGHLPGYALPLFVRVVGSLAHTTTFKSRKVELRNQEGHHHHHH	not soluble
MTILSVSPNKREDLSMKRKIALAMVLAMTASMAQPVLAADSKTTLDVIISQYGTQTQTWWTQFEKDFEAENPDIDLNVEIVSWNDLYTKVNTLVANNNAPDILNIDVLADYVADDLLMPATEYASEDLQAKFFPAFWEASTIDDTVYALPILASCRALFYNKDILDEAGATVPTTWAEVQETAQKIKDKFGDDVYPWGIDMTTDEGQAAFSYYTWNNGGGFVDENGDWALNSDKNVEALNFAIGLVNDGYTNSDPANETRYDLQDMFGAGKVAMMIGPNNIPTYLSDGGYDINYDVTTIPANEGCDSVAMGVCDRLEVFKDDSAEDQEARTAAISKFFDFFYDDERYADYMVFEGFLPTTQTAADLLAKDDDTFASWIDILQSCNFYPATKTEWADVKQGVIEVEQNALLGDDVQTLLDDLQADIAG	not soluble
MSLKEELQLKQKLGGQKMVIQGDTLENSARRLLQERGVTMNDLAELVLFLQKDYIDNLTLDTCLESVDAVLTKREVHNAIITGVQLDILAEENKLLSPLQEILTEDEGLYGIDEIMALSIVNVYGSIGFTNYGYIDKVKPGILKELNAHDGEHVHTFLDDIVGAIAAAAASRLAHSQPDLSDITKEGGSHHHHHH	soluble
QEAQANTESEKRRLDSVITHMSDGILATDRRGRVRIANDMALKMLGLAKEDVIGYYMLGVLNLENEFSLEEIQENSDSFLLDINEEEGIIARVNFSTIVQETGFVTGYIAVLHDVT	not soluble
MVIRRCEKMEEETWKLKIGMCIQAKDFYSKRTDCSVHRPDVGGGLITEGNGYRVVVHDQCEEPNPFIIATTKQTHFGVTHSYIEFSNSNTGAPENIPDCSKHILISVYCDQEASGLDFHTLKYVESNYLHITVKYDTSCINHLGVNYSFMNECERKLTSIYETDTLTCGAKDIQTRDKYLKTCTNTKFDRSVYKTHMQKSKILHVKTELE	not soluble
